Assay results from patent publication US20260070983A1.

Key:
human PD-1 ECD (human) = assay: SPR, 37 °C
human PD-1 (human) = human PD-1 (human) (UniProt Q15116); assay: cell-based or functional assay
Sequence of human PD-1 (human) (Q15116 25-288): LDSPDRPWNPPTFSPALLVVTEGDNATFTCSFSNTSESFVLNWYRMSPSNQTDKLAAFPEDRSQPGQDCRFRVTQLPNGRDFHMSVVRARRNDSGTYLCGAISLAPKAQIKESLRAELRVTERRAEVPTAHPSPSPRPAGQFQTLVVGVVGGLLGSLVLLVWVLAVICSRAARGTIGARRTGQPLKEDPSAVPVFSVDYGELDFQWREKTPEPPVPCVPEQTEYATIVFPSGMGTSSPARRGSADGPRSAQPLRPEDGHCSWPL

Sequence of human PD-1 ECD (human) (Q15116 25-170): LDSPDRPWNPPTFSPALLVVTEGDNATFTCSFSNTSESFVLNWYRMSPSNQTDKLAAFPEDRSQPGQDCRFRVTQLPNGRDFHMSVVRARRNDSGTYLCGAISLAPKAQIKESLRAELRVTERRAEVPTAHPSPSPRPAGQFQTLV

B1: G2 IgG1 mAb (antibody, INN chains, looked up, V domains shown)
VH: QVQLVQSGAEVKKPGASVKVSCKVSGYSLSKYDMSWVRQAPGKGLEWMGIIYTSGYTDYAQKFQGRVTMTEDTSTDTAYMELSSLRSEDTAVYYCATGNPYYTNGFNSWGQGTLVTVSS
VL: DIQMTQSPSSLSASVGDRVTITCQASQSPNNLLAWYQQKPGKAPKLLIYGASDLPSGVPSRFSGSGSGTDFTLTISSLQPEDFATYYCQNNYYVGPVSYAFGGGTKVEIK
modifications: IgG1
**Q.** For B1, which Kd (human PD-1 ECD (human)) is on record?
**A.** 2.3 nM

**Q.** What about the % ADCC Activated T cells, mean (human PD-1 (human)) of the same binder?
**A.** 3.3%

**Q.** And the % ADCC PBMC, mean (human PD-1 (human))?
**A.** 0.2%

**Q.** What about the % Inhibition Proliferation, mean (SEB assay) (human PD-1 (human)) of the same binder?
**A.** 36.9%

**Q.** What about the % PD-1 Expression Inhibition, mean (SEB assay) (human PD-1 (human)) of the same binder?
**A.** 50.8%

**Q.** What about the % T cell Proliferation Inhibition, mean (SEB assay) (human PD-1 (human)) of the same binder?
**A.** 56.5%
